# B1: BTB/POZ domain-containing protein At1g21780 (Arabidopsis thaliana (Mouse-ear cress)), Q9XHZ8 (parent)
# chain: MGDTKVETISRLAQWRIENFGPCSFKKSDPFKVGIWNWHLSIERNRYLSVRLFPELSRVSKEQPPVAKFVLRVSNVGPNRRFYISPVYEKLLRTTDDCVWHVDSSFHGRFTIDVEFLDLKICPVNGGEASPVWPTDATMQSISTQTTLKCLSRMLEESILTDVIIHTADGTLSAHKAILSASSTVFKSMFHHDLMEKESSTIHIDDMSRESCMALLSYLYGNITQEEFWKHRLALLGAANKYDITDLKAACEESLMEDINSSNVLERLQEAWLYQLEKLKKGCLMYLFDFGKIYDVREEISSFFRQADRELMLEMFQEVLSVWKPV
# partner: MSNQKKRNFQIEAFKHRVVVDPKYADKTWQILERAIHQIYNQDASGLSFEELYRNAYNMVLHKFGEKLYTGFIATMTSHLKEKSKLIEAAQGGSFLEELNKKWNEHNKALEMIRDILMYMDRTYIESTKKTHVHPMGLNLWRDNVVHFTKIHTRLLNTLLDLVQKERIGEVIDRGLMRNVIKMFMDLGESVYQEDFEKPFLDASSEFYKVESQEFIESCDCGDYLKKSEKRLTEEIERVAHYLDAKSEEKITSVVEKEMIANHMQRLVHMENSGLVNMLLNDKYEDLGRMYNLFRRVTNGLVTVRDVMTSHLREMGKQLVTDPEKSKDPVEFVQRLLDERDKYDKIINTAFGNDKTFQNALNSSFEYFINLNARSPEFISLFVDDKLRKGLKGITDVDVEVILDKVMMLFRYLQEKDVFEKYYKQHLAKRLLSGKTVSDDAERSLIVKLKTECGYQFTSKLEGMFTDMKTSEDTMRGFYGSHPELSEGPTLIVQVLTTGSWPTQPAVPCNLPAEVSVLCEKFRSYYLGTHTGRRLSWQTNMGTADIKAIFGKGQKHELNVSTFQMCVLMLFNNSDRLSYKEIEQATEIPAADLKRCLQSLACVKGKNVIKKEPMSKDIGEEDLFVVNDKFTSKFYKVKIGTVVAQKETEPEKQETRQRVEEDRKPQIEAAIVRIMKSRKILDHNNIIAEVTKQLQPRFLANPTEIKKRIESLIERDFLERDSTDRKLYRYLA
# B2: Cullin-3A (Arabidopsis thaliana (Mouse-ear cress)), Q9ZVH4 (parent)
# chain: B1 partner
# partner: B1 chain
# Variants of: B1
# Conditions: with cul3a_arath CUL3A, Q9ZVH4
row,Variant,effect of a mutation on the interaction
1,Y242A,decreasing interaction
2,I204R,decreasing interaction

# Variants of: B2
# Conditions: with y1178, Q9XHZ8
row,Variant,effect of a mutation on the interaction
1,F49A,decreasing interaction
2,S48A,decreasing interaction

# Reference: IntAct's records for PubMed 15772280
